Results as given in US12072338B2, “Pharmaceutical peptides for the treatment of inflammatory diseases” (PROTAGONISTS LTD., priority 2007, dated 2024).

Assays:
[1] = target: T1, GRO-β (Homo sapiens, UniProt P19875); assay: Micro-array analysis of chemokine binding peptides: GRO-β
T1 construct: purchased 300-39
T1 sequence (P19875 35-107): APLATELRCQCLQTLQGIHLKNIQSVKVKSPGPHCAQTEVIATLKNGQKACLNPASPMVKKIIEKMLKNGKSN
Method: (§1) (1) Printing: Chemokine (CK) solution (in water) was serially diluted with Print Reagent (GenTel BioSurfaces USA) to final concentrations of 50 μg and 25 μg/ml. BSA/BSA-Biotin control solutions (in water) were diluted with Print Reagent to 100 μg/ml. Amplified stock of M13 phage control (M13KEgIII Cloning Vector, New England Biolabs, Cat.No.E8101S) was stored in Tris Buffered Saline (TBS; pH7.5, 4° C.) and diluted with Print Reagent to the working titre (10^8 pfu/μl). An automated spotting robot (16 pin print tool, 0.4 mm head; BioRobotics, UK) was used to print the CK/BSA control/M13 control, 5 repeats per sample (CK 25 μg/ml and 50 μg/ml; BSA 100 μg/ml; M13 20 μl), on PATH Protein Microarray Slides (GenTel, Prod.No. 2-1005/-1025) at […], and 50-70% relative humidity. Printed micro-array slides were stored at Room Temperature (RT) or 4° C. for at least 24 h before use.
(§2) (2) Blocking: Block Buffer (500 μl/partition; PATHblock, GenTel, Prod.No. 2-1014) was applied to the slide for 1 hour at room temp (RT). After removal of Block Buffer, the slide was air dried for 25 minutes;
(§3) (3) Phage Presented Peptide Binding: Amplified recombinant phage stock was stored in TBS and diluted with Wash Buffer to working titer (10^7 pfu/μl). Recombinant phage suspension (300 μl) was applied per partition and incubated at RT for 1 hour with gentle agitation.
(§4) (4) First Washing: The slides were washed twice with Wash Buffer 300 μl/partition).
(§5) (5) Primary Antibody (Ab) Labeling: The slides were incubated with the Primary Ab (1 mg/ml diluted ×2500 (Wash Reagent), 300 μl; Mouse Anti-M13 monoclonal Ab; Amersham Biosciences, UK; Product Code 27-9420-01) for 45 minutes at RT.
(§6) (6) Second Washing: The slides were washed twice with Wash Buffer (300 μl/partition).
(§7) (7) Secondary Ab Labeling: The slides were incubated with Secondary Ab (1.5 mg/ml diluted ×5000 (Wash Reagent), 300 μl; Cy3-conjugated AffiniPure Goat Anti-Mouse IgG; Jackson ImmunoReserch Labs, USA; Product Code 115-165-062).
(§8) (8) Third Washing: The slides were washed twice with Wash Buffer (300 μl/partition).
(§9) (9) Rinse: the slides were rinsed twice with Rinse Buffer (PATHrinse, GenTel, Prod.No. 2-1018) then dried well.
(§10) (10) Scanning: The peptide-bound, labeled slide was scanned (Laser Intensity 80%, Gain 80%, Resolution 10 μm) with a ScanArray Life Scanner (Packard BioChip Technologies, USA).
(§11) (11) Analysis: Quantitative analysis of micro-array was performed by the SpotReader program of Niles Scientific (USA) and presented as Relative Fluorescence (RF) as a function of CK concentration. Micro-array readout (Cy3 fluorescence) was quantified to determine the relative binding affinities of a CBP for the CKs and by inference, the specificity of the CBP for binding to a CK.

[2] = system: IL-8; assay: Micro-array analysis of chemokine binding peptides: IL-8
Sequence of IL-8 (P10145 28-99 limits assumed): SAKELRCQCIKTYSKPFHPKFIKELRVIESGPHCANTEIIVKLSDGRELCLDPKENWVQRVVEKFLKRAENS
Method: as §1, §2, §3, §4, §5, §6, §7, §8, §9, §10, §11

[3] = target: T2, Mig (Homo sapiens, UniProt Q07325); assay: Micro-array analysis of chemokine binding peptides: Mig
T2 construct: purchased 300-26
T2 sequence (Q07325 23-125): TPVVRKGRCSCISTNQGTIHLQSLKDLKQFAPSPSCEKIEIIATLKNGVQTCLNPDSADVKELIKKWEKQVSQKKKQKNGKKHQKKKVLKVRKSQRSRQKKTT
Method: as §1, §2, §3, §4, §5, §6, §7, §8, §9, §10, §11

[4] = target: T3, IP-10 (Homo sapiens, UniProt P02778); assay: Micro-array analysis of chemokine binding peptides: IP-10
T3 construct: purchased 300-12
T3 sequence (P02778 22-98): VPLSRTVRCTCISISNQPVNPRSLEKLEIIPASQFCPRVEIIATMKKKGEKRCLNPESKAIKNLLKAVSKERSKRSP
Method: as §1, §2, §3, §4, §5, §6, §7, §8, §9, §10, §11

[5] = target: T4, MCP-1 (Homo sapiens, UniProt P13500); assay: Micro-array analysis of chemokine binding peptides: MCP-1; conditions: limit = start of the upper 75% of that peptide's response range
T4 construct: purchased 300-04
T4 sequence (P13500 24-99): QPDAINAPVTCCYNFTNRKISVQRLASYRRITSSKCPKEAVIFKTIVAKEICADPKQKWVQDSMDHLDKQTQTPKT
Method: as §1, §2, §3, §4, §5, §6, §7, §8, §9, §10, §11

[6] = target: T5, MCP-2 (Homo sapiens, UniProt P80075); assay: Micro-array analysis of chemokine binding peptides: MCP-2; conditions: limit = start of the upper 75% of that peptide's response range
T5 construct: purchased 300-15
T5 sequence (P80075 24-99): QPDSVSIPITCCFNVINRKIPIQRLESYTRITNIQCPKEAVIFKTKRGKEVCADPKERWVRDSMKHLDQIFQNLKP
Method: as §1, §2, §3, §4, §5, §6, §7, §8, §9, §10, §11

[7] = target: T6, MCP-4 (Homo sapiens, UniProt Q99616); assay: Micro-array analysis of chemokine binding peptides: MCP-4; conditions: limit = start of the upper 75% of that peptide's response range
T6 construct: purchased 300-24
T6 sequence (Q99616 17-98): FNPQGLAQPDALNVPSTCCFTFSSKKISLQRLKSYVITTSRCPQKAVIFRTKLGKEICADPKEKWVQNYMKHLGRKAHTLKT
Method: as §1, §2, §3, §4, §5, §6, §7, §8, §9, §10, §11

[8] = target: T7, RANTES (Homo sapiens, UniProt P13501); assay: Micro-array analysis of chemokine binding peptides: RANTES
T7 construct: purchased 300-06
T7 sequence (P13501 24-91): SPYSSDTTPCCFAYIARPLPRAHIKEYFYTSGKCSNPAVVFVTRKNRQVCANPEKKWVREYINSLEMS
Method: as §1, §2, §3, §4, §5, §6, §7, §8, §9, §10, §11

[9] = target: T8, Eotaxin (Homo sapiens, UniProt P51671); assay: Micro-array analysis of chemokine binding peptides: Eotaxin
T8 construct: purchased 300-21
T8 sequence (P51671 24-97): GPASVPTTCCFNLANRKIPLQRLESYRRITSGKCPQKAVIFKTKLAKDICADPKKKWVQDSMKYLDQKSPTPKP
Method: as §1, §2, §3, §4, §5, §6, §7, §8, §9, §10, §11

[10] = target: T9, Eotaxin 3 (Homo sapiens, UniProt Q9Y258); assay: Micro-array analysis of chemokine binding peptides: Eotaxin 3
T9 construct: purchased 300-48
T9 sequence (Q9Y258 24-94): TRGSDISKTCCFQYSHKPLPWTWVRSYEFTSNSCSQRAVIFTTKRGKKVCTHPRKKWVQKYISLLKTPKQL
Method: as §1, §2, §3, §4, §5, §6, §7, §8, §9, §10, §11

[11] = target: T10, BCA-1 (Homo sapiens, UniProt O43927); assay: Micro-array analysis of chemokine binding peptides: BCA-1
T10 construct: purchased 300-47
T10 sequence (O43927 23-109): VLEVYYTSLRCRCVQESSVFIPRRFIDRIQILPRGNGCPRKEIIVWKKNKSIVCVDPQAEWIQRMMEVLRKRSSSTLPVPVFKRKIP
Method: as §1, §2, §3, §4, §5, §6, §7, §8, §9, §10, §11

[12] = target: T11, TECK (Homo sapiens, UniProt O15444); assay: Micro-array analysis of chemokine binding peptides: TECK
T11 construct: purchased 300-45
T11 sequence (O15444 24-150): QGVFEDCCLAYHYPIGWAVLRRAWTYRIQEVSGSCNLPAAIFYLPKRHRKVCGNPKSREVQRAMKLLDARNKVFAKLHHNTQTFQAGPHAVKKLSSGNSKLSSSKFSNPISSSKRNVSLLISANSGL
Method: as §1, §2, §3, §4, §5, §6, §7, §8, §9, §10, §11

[13] = target: T12, Fractalkine (Homo sapiens, UniProt P78423); assay: Micro-array analysis of chemokine binding peptides: Fractalkine
T12 construct: purchased 300-31
T12 sequence (P78423 25-100 limits assumed): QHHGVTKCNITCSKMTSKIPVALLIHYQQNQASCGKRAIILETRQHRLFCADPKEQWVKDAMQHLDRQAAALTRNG
Method: as §1, §2, §3, §4, §5, §6, §7, §8, §9, §10, §11

[14] = target: T13, Lymphotactin (Homo sapiens, UniProt P47992); assay: Micro-array analysis of chemokine binding peptides: Lymphotactin
T13 construct: purchased 300-20
T13 sequence (P47992 22-114): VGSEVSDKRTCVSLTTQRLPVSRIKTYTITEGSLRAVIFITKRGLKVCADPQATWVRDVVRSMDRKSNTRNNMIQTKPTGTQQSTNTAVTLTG
Method: as §1, §2, §3, §4, §5, §6, §7, §8, §9, §10, §11

[15] = target: T14, Exodus-2 (Homo sapiens, UniProt O00585); assay: Micro-array analysis of chemokine binding peptides: Exodus-2
T14 construct: purchased 300-35
T14 sequence (O00585 24-134): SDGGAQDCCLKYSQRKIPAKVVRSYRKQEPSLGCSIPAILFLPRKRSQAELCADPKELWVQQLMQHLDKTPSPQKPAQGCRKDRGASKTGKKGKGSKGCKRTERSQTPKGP
Method: as §1, §2, §3, §4, §5, §6, §7, §8, §9, §10, §11

[16] = target: T15, I-TAC (Homo sapiens, UniProt O14625); assay: Micro-array analysis of chemokine binding peptides: I-TAC
T15 construct: purchased 300-46
T15 sequence (O14625 22-94): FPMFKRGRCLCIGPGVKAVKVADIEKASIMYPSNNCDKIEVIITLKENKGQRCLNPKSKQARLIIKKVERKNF
Method: as §1, §2, §3, §4, §5, §6, §7, §8, §9, §10, §11

[17] = target: T16, I-309 (Homo sapiens, UniProt P22362); assay: Micro-array analysis of chemokine binding peptides: I-309
T16 construct: purchased 300-37
T16 sequence (P22362 24-96): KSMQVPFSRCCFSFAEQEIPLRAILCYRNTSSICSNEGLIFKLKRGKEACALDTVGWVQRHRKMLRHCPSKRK
Method: as §1, §2, §3, §4, §5, §6, §7, §8, §9, §10, §11

[18] = target: T17, Eotaxin 2 (Homo sapiens, UniProt O00175); assay: Micro-array analysis of chemokine binding peptides: Eotaxin 2
T17 construct: purchased 300-33
T17 sequence (O00175 27-119): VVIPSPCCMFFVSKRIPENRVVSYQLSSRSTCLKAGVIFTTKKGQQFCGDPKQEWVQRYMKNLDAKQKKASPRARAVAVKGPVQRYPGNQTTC
Method: as §1, §2, §3, §4, §5, §6, §7, §8, §9, §10, §11

[19] = target: T18, SDF1-α (Homo sapiens, UniProt P48061); assay: Micro-array analysis of chemokine binding peptides: SDF1-α
T18 construct: purchased 300-28a
T18 sequence (P48061 22-89 limits assumed): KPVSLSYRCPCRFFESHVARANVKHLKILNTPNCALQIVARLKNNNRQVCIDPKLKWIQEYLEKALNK
Method: as §1, §2, §3, §4, §5, §6, §7, §8, §9, §10, §11

[20] = target: T19, SDF1-β (Homo sapiens, UniProt P48061); assay: Micro-array analysis of chemokine binding peptides: SDF1-β
T19 construct: purchased 300-28b
T19 sequence (P48061 22-93): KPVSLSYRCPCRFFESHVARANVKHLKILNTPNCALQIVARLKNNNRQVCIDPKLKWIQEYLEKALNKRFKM
Method: as §1, §2, §3, §4, §5, §6, §7, §8, §9, §10, §11

[21] = limit = start of the upper 75% of that peptide's response range

| Substance | binding to Mig, stated in words [3] | binding to IP-10, stated in words [4] | binding to MCP-1 with relatively high affinity (Relative Fluorescence Units) [5] | binding to MCP-2 with relatively high affinity (Relative Fluorescence Units) [6] | binding to MCP-4 with relatively high affinity (Relative Fluorescence Units) [7] | binding to RANTES, stated in words [8] | binding to Eotaxin, stated in words [9] | binding to Eotaxin 3, stated in words [10] | binding to BCA-1, stated in words [11] | binding to TECK, stated in words [12] | binding to Fractalkine, stated in words [13] | binding to Lymphotactin, stated in words [14] | binding to Exodus-2, stated in words [15] | also measured |
| --- | --- | --- | --- | --- | --- | --- | --- | --- | --- | --- | --- | --- | --- | --- |
| TKCOKE (TKCQKE; listed as Homo sapiens) [Ph-p20] | bound | bound | > 15,000 RFU | > 15,000 RFU | > 15,000 RFU | bound | bound | bound | bound | bound | bound | bound | bound | binding to GRO-β, stated in words [1]: bound; binding to IL-8, stated in words [2]: bound |
| WVFGAAACK [Ph-p8.6] | bound | bound | > 15,000 RFU | > 15,000 RFU | > 15,000 RFU |  | bound | bound | bound | bound |  | bound | bound | binding to I-TAC, stated in words [16]: bound; binding to I-309, stated in words [17]: bound; binding to Eotaxin 2, stated in words [18]: bound; binding to SDF1-α, stated in words [19]: bound; binding to SDF1-β, stated in words [20]: bound |
| WVFGHGMCK [Ph-p25] |  |  | > 15,000 RFU | > 15,000 RFU | > 15,000 RFU | bound | bound | bound | bound | bound | bound | bound | bound | binding to GRO-β with relatively high affinity (Relative Fluorescence Units) [1, 21]: > 15,000 RFU; binding to IL-8 with relatively high affinity (Relative Fluorescence Units) [2, 21]: > 15,000 RFU; binding to Mig with relatively high affinity (Relative Fluorescence Units) [3, 21]: > 15,000 RFU; binding to IP-10 with relatively high affinity (Relative Fluorescence Units) [4, 21]: > 15,000 RFU |
